Measurements published in PMC3070748.

Target: Gemin7 BiFC construct (UniProt Q9H840)
Test: split reporter

Chain of UniProt Q9H840 (Q9H840 whole entry): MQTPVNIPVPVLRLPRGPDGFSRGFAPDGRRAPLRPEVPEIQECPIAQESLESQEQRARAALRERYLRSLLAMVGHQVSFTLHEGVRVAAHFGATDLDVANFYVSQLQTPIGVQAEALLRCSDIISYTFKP

Substance: murine Unrip fused to a Venus fragment (BiFC construct) (from UniProt Q9Z1Z2 1-350) (natural protein)
- percent of BiFC-positive cells: 56%
